From patent US6303361, “Human glandular kallikrein-1 (hK2)” (Orion-Yhtyma Oyj, dated 2001)

What was measured:
[1] = biological target: α1-antichymotrypsin (Homo sapiens (Human), UniProt P01011); experiment: complex formation with serpin (method not described)
[2] = biological target: α1-antitrypsin (Homo sapiens (Human), UniProt P01009); experiment: as above

- binding result [1]: no binding
- binding result [2]: no binding
B1: recombinant Trp226-hK2 protein (Trp226-hK2 having the N-terminal dipeptide extension Ser-Arg, from insect cells) (enzyme)
chain: not shown
